{"source": "paper PMC4164784", "about": "“4E-BPs require non-canonical 4E-binding motifs and a lateral surface of eIF4E to repress translation” (Nature Communications, 2014)", "key": {"[1]": {"system": "eIF4E (residues 69–248)", "assay": "MBP pull-down of purified eIF4E (69–248)", "assay_type": "binding, Drosophila melanogaster", "details": "MBP- and GB1-tagged fragments, 1 h at 4 °C, SDS–PAGE Coomassie, no eIF4G present", "experimental": "In Fig. 2c, eIF4G (residues 578–650) and the C+NC peptides of CUP, Thor and 4E-T were expressed with a N-terminal MBP and a C-terminal GB1 tag. The bacterial cells were resuspended in 5 ml of lysis buffer containing 50 mM HEPES (pH 7.2), 200 mM NaCl and 2 mM DTT and lysed by sonication. Purified eIF4E (residues 69–248) was added to the cleared lysates (40–80 μl), adjusted to 0.3 ml with lysis buffer and incubated with 30 μL of amylose resin for 1 h at 4 °C. The beads were washed three times with lysis buffer and eluted with 64 μl of the same buffer containing 25 mM maltose. The proteins were analyzed by 15% SDS–PAGE followed by Coomassie blue staining."}, "[2]": {"target": "T1, eIF4E–eIF4G complex (eIF4E WT; eIF4G residues 578–650) (Drosophila melanogaster, UniProt P48598)", "T1 construct": "full-length eIF4E (WT or the II-AA mutant) containing an N-terminal SNH-tag was coexpressed; made in house; host or cells: E. coli BL21 Star (DE3), coexpression", "T1 sequence (P48598 1-248 isoform P48598-2)": "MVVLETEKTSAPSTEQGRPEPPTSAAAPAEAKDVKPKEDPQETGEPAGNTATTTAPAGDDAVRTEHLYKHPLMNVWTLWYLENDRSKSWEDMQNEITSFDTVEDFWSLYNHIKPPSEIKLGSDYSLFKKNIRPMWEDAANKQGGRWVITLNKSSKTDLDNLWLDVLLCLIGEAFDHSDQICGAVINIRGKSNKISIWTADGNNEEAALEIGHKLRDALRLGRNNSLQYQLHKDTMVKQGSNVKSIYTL", "assay": "Competition assay, displacement of GST-eIF4G from preassembled eIF4E (WT)–eIF4G complexes", "assay_type": "biochemical", "details": "Fig. 5a,c; fivefold molar excess of MBP-tagged competitor, 30 min at 4 °C, m7GTP or Strep-Tactin pull down", "experimental": "(§1) For the competition assays shown in Figs 5a,c and 6a,b, complexes containing SHN- or MBP-tagged eIF4E (WT or II-AA mutant) bound to GST-eIF4G (residues 578–650), GST-Thor (full length), GST-4E-T (residues 1–58) or GST-CUP (311–440) were obtained by coexpressing the corresponding proteins in E. coli BL21 (DE3) STAR cells (30 ml culture). The cells were resuspended in lysis buffer (5 ml) that was supplemented with EDTA-free protease inhibitor (Roche) and 1 mg ml^−1 lysozyme and lysed by sonication. The cleared lysates were incubated with 400 μl of Protino Glutathione Agarose 4B (Macherey-Nagel) for 1 h. The beads were washed three times with lysis buffer, and the proteins were eluted after 10 min of incubation with lysis buffer containing 25 mM L-glutathione. The protein complexes were stored at −20 °C or used in competition assays.\nThe purified recombinant complexes were mixed with excess amounts of the indicated purified competitor proteins (Fig. 5c) or with bacterial lysates expressing the competitor proteins (Figs 5a and 6) and incubated for 30 min at 4 °C. After incubation, 20 μl of immobilized γ-Aminophenyl-m^7GTP or Strep-Tactin Sepharose (IBA), were added to the samples and incubated for another 40 min at 4 °C. The beads were washed three times with lysis buffer and eluted with lysis buffer containing 2.5 mM desthiobiotin (Strep-Tactin Sepharose) or with 20 μl of SDS–PAGE loading buffer (Aminophenyl-m^7GTP beads). The proteins were analyzed by 10–15% SDS–PAGE followed by staining with Coomassie blue staining. […]"}, "[3]": {"system": "endogenous eIF4E", "assay": "Coimmunoprecipitation / m7GTP pull-down with endogenous eIF4E in S2 cell lysates", "assay_type": "cell-based, Drosophila melanogaster", "details": "western blot", "method_in_brief": "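S2 cell lysates expressing HA-tagged 4E-BPs (CUP, Thor, 4E-T), eIF4G or mutants, immunoprecipitated with anti-eIF4E or anti-HA antibodies, or pulled down with m7GTP beads for 1 h at 4 °C. Washes in NET buffer (50 mM Tris pH 7.4, 150 mM NaCl, 1 mM EDTA, 0.1% Triton X-100). Bound proteins detected by anti-HA/anti-eIF4E western blot; pre-immune serum and HA-MBP as negative controls.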"}, "[4]": {"system": "eIF4E II-AA (lateral surface mutant)", "assay": "Coimmunoprecipitation with HA-eIF4E II-AA in S2 cells", "assay_type": "cell-based, Drosophila melanogaster", "details": "HA-eIF4E II-AA vs WT, western blot", "experimental": "The coimmunoprecipitations assays were performed as previously described. For the pull downs using m^7GTP beads, 25 μl of immobilized γ-aminophenyl-m^7GTP (C10-spacer—Jena Bioscience) beads was added to the cell lysates and the mixtures were rotated for 1 h at 4 °C. The beads were washed three times with NET buffer (50 mM Tris (pH 7.4), 150 mM NaCl, 1 mM EDTA and 0.1% Triton X-100). The bound proteins were eluted with 2 × SDS–polyacrylamide gel electrophoresis (SDS–PAGE) sample buffer and analyzed by western blotting (WB). All of the WB experiments were developed with the ECL western blotting detection system (GE Healthcare) as recommended by the manufacturer. The antibodies used in this study are listed in Supplementary Table 2."}, "[5]": {"system": "eIF4E II-AA mutant (full length)", "assay": "GST/MBP pull-down of full-length eIF4E II-AA mutant, coexpressed in E. coli", "assay_type": "binding, Drosophila melanogaster", "details": "recombinant CUP (311–440), Thor (full length), 4E-T (1–58) or eIF4G (578–650), WT or mutant, SDS–PAGE", "experimental": "For the pull-down assays shown in Fig. 3 and Supplementary Fig. 6a, the full-length His6- or SHN-tagged eIF4E (WT or II-AA mutant) was coexpressed with GST or MBP-tagged protein fragments, including CUP (residues 311–440), Thor (full length), 4E-T (residues 1–58) or eIF4G (residues 578–650) in E. coli BL21 (DE3) STAR cells in autoinducing medium[44] overnight at 20 °C. The cells were resuspended in lysis buffer (20 mM Tris–HCl (pH 7.5), 100 mM NaCl, 1 mM DTT) supplemented with EDTA-free protease inhibitor (Roche) and lysed by sonication. The cleared lysates were incubated for 1 h with 20 μl of Protino Glutathione Agarose 4B beads (Macherey-Nagel) or amylose resin (New England Biolabs). The beads were washed three times with lysis buffer, and the bound proteins were eluted with lysis buffer containing 25 mM L-glutathione or 25 mM maltose for 15 min. The proteins were analyzed by 10–15% SDS–PAGE followed by Coomassie blue staining."}, "[6]": {"system": "endogenous eIF4E and HA-tagged 4E-BPs in S2 cells", "assay": "Immunofluorescence localization in S2 cells", "assay_type": "cell-based, Drosophila melanogaster", "experimental": "S2 cells expressing HA-tagged versions of CUP, Thor and 4E-T or the indicated mutants were treated with Leptomycin B (100 nM; Sigma) or methanol as a control for 12 h. After the LMB treatment, the cells were allowed to adhere to poly-D-lysine–coated coverslips for 15 min and were fixed with 2% paraformaldehyde for 10 min. The cells were then permeabilized with 0.1% Triton X-100 in PBS (10 min) and stained with affinity-purified monoclonal anti-HA (Covance 1:1,000) and polyclonal anti-eIF4E (1:2,000) antibodies in PBS containing 1% BSA for 1 h. Alexa Fluor 594-labeled goat anti-rabbit and 488-labeled anti-mouse antibodies (Invitrogen) were used at dilutions of 1:1,000 and 1:2,000, respectively. The cells were mounted using Fluoromount-G (Southern Biotech). The images were acquired at room temperature using a confocal microscope (TCS SP2; Leica) that was fitted with a Plan-Apochromat × 100 NA 1.40 oil immersion objective and a series of three photomultipliers (Hamamatsu Photonics) controlled with the Leica confocal software (version 2.61). The images were prepared using Photoshop (Adobe). […]\nThor) independent experiments. […] Confocal fluorescent […]\nmicrographs of fixed S2 cells expressing HA-4E-T and GFP-Tral. The localization of HA-4E-T was determined by indirect immunofluorescence using an anti-HA antibody. The merged pictures show the HA signal in red and the GFP-Tral signal in green. Bar: 5 μm."}, "[7]": {"system": "eIF4E W106A (dorsal surface mutant)", "details": "known effect of W106A substitution; cited from earlier work"}, "[8]": {"system": "eIF4E (WT) bound to GST-CUP, GST-Thor, GST-4E-T or GST-eIF4G", "assay": "Competition by MBP-eIF4G with 4E-BPs or eIF4G bound to WT eIF4E", "assay_type": "biochemical, Drosophila melanogaster", "details": "excess MBP-eIF4G (residues 578–650), 30 min at 4 °C, Strep-Tactin pull down", "experimental": "as §1\n(§2) The purified recombinant complexes were mixed with excess amounts of the indicated purified competitor proteins (Fig. 5c) or with bacterial lysates expressing the competitor proteins (Figs 5a and 6) and incubated for 30 min at 4 °C. After incubation, 20 μl of immobilized γ-Aminophenyl-m^7GTP or Strep-Tactin Sepharose (IBA), were added to the samples and incubated for another 40 min at 4 °C. […] The proteins were analyzed by 10–15% SDS–PAGE followed by staining with Coomassie blue staining."}, "[9]": {"system": "eIF4E II-AA mutant bound to GST-4E-BP", "assay": "Competition by MBP-eIF4G with 4E-BPs bound to eIF4E II-AA mutant", "assay_type": "biochemical, Drosophila melanogaster", "details": "30 min at 4 °C", "experimental": "as §1, §2"}}, "note": "No end group written: not given here.", "data": [{"molecule": "CUP NC: CUP residues 362–376, non-canonical motif, MBP/GB1 fusion (IELEGRLRRMNIWRT; also: MBP/GB1 fusion; UniProt Q9VMA3 362-376, looked up, fragment)", "values": [{"measurement": "pull down of purified eIF4E (in words)", "setting": "[1]", "result": "bind to eIF4E in the absence of eIF4G"}, {"measurement": "competition with eIF4G for eIF4E WT (in words)", "setting": "[2]", "result": "did not compete with eIF4G"}]}, {"molecule": "CUP: Dm CUP (1–1117), Q9VMA3; residues 311–440 in pull-down assays (protein, left off: GFP, end not stated, kept, Dm CUP (1–1117), Q9VMA3; residues 311–440 in pull-down assays) MQMAEAEQENGAGALKIATNAGATDRPAHQQLPLPVEDQQDEVLTPAEKGKFEYPPPPPPPTPVQAPLATKATALNASQEHDDDEANSEKWEDPCAPPPPPPLPTSAFLATGLGYLKLPAFKLKDALEKAITKLEANKRTLKASPESSRSIKNKNVVALEMLPRRSNPETIGDGSMLASTSTAVMLQTKKPAVIVEMERRCKIINLLAKQNQILESISGEAIPMHGPSKHLHEDEGLTLQVLSARASTPYTQPSSMLSCTAVSCDLEHDSPRKQVASKEAVPEQQSSQVQQKRPPSTGIHKPGSLRAPKAVRPTTAPVVSSKPVKSYTRSRLMDIRNGMFNALMHRSKESFVMPRIATCDDIELEGRLRRMNIWRTSDGTRFRTRSTTANLNMNNNNNNECMPAFFKNKNKPNLISDESIIQSQPPQPQTEFQDPAIVNQRRIGSGRLNHSKWGYNDEDYHSYHNGKSQHMEEVNSKNSKNMTVLQFFDNGEISSQPQRRPNTPVMGMSINRSENDTLHSNESSEDLSRANENYVKRVMSGFLVVSKPKSRDVEDRHHRRYRNQNEEPEWFSCGPTSRLDTIELCGFDEDEEKMLKEGNKNHGLGETERETSKQKMDHKYKWTHAEPMGRSKYMPKHDTNNNHNVENMNNVMATEHQQQKEEKRPGSGRSFQFDKFNQSQQNYESSSYVNHQQPPQTQPQQMQQQSNTNTNNSKFMSFFANEGNSSSSSLNEFFKQAINQGHGNNPEQPKSLGHIGQMPSVDQLEAKWRRNSLNNVGETANKQTDNFQKLIGSLSSAKPQSQAVGYDAISNFIMQQQQYQQQQQKQHLIIQQQQQHTAFLASLQLKAILGRADTQLLLLRLTKGEISKHGLLVQLANPRLTDMDREAITAVLQFTNTQQQQQQHKQQLDMLSSTVIASQLQNLHNLAIVQQTLAARQQPQHNPQTQAPHQLSQEDLQAHANVIMRNAVMKRKIEEQTSKLINGGAKHQAQQQYLNRGQQRQARPDANSNALLHALISGGGNNHASGYPMNGQPQKHHSNLRFGDNQNFQSFESNQPHFATQYKQQYQQSQQQHPHQQPQQLNSLHQNNAGAVNSFNKAQMQAQSAISMLPNSGDEFH", "values": [{"measurement": "interaction with endogenous eIF4E (in words)", "setting": "[3]", "result": "interacted with endogenous eIF4E"}, {"measurement": "association with eIF4E II-AA (in words)", "setting": "[4]", "result": "disrupted the association"}, {"measurement": "binding to eIF4E II-AA mutant (in words)", "setting": "[5]", "result": "pulled down comparable amounts of WT and mutant eIF4E"}, {"measurement": "nuclear accumulation of endogenous eIF4E upon LMB (in words)", "setting": "[6]; S2 cells expressing 4E-BP or mutant, LMB 100 nM, 12 h", "result": "endogenous eIF4E accumulated in the nucleus"}, {"measurement": "localization of endogenous eIF4E (in words)", "setting": "[6]; S2 cells overexpressing 4E-BP or mutant, −LMB", "result": "evenly distributed in the cytoplasm"}, {"measurement": "nuclear accumulation of 4E-BP upon LMB (in words)", "setting": "[6]; S2 cells, LMB 100 nM, 12 h", "result": "nuclear accumulation"}, {"measurement": "localization of the 4E-BP (in words)", "setting": "[6]; S2 cells, steady-state, −LMB", "result": "distributed evenly throughout the cytoplasm"}, {"measurement": "binding to eIF4E W106A (in words)", "setting": "[7]", "result": "abolishes the binding"}]}, {"molecule": "MBP-eIF4G: MBP-eIF4G (residues 578–650) (protein, left off: MBP, N-terminal, kept | GB1, C-terminal, kept) PETTLNDKQDSTDLKVKVSAKISSIINYNEGQWSPNNPSGKKQYDREQLLQLREVKASRIQPEVKNVSILPQP", "values": [{"measurement": "displacement of proteins bound to WT eIF4E (in words)", "setting": "[8]", "result": "did not displace CUP, Thor, 4E-T or eIF4G bound to WT eIF4E"}, {"measurement": "displacement of CUP bound to eIF4E II-AA (in words)", "setting": "[9]; excess MBP-eIF4G (residues 578–650) vs GST-CUP (311–440)", "result": "partially displaced CUP"}, {"measurement": "displacement of Thor bound to eIF4E II-AA (in words)", "setting": "[9]; excess MBP-eIF4G (residues 578–650) vs GST-Thor (full length)", "result": "completely displaced full-length Thor"}]}]}
